One assay has as its target HLA-A*02:01. The experiment in a line: IEDB peptide-MHC binding, purified MHC/direct/fluorescence; filed as Kd, often an IC50 or EC50 that approximates it; ≥ and ≤ were set here for values at or beyond the usual limits of such assays.
The target of the next assay is HLA-A*02:03. Described as above.
The target of a further assay is HLA-A*02:06. Described as above.
The target of a further assay is HLA-A*02:12. Described as above.
The next assay addresses HLA-A*02:19. The description is as above.
A further assay has as its target HLA-A*03:01. Described as above.
A further assay concerns the target HLA-A*23:01. Described as above. The following applies: source organism: Listeria monocytogenes serotype 4b str. H7858.
The target of a further assay is HLA-A*26:01. The assay is described as above.
The next assay deals with HLA-A*29:02. Described as above.
In the next assay the target is HLA-A*69:01. The description is as above.
Another assay deals with HLA-B*18:01. Described as above.
Another assay has as its target HLA-B*27:03. The description is as above.
The target of the next assay is HLA-B*39:01. The description is as above.
Another assay deals with HLA-B*51:01. The description is as above.
The next assay concerns the target HLA-B*57:01. Described as above.
The next assay addresses HLA-A*01:01. The experiment in a line: IEDB peptide-MHC binding, purified MHC/competitive/fluorescence; filed as Kd, often an IC50 or EC50 that approximates it; ≥ and ≤ were set here for values at or beyond the usual limits of such assays. The following applies: source organism: Listeria monocytogenes J0161.
The target of the next assay is HLA-A*11:01. The assay is described as above. Conditions: source organism: Listeria monocytogenes J0161.
Assay [1] has as its target HLA-A*24:03. The assay is described as above. The following applies: source organism: Listeria monocytogenes J0161.
A further assay addresses HLA-A*30:01. The description is as above. The following applies: source organism: Listeria monocytogenes J0161.
A further assay concerns the target HLA-A*66:01. Described as above. Conditions: source organism: Listeria monocytogenes J0161.
A further assay concerns the target HLA-B*07:02. The assay is described as above. The following applies: source organism: Listeria monocytogenes J0161.
For a further assay, the target named is HLA-B*08:01. The assay is described as above. The following applies: source organism: Listeria monocytogenes J0161.
In a further assay the target is HLA-B*14:02. The description is as above. Conditions: source organism: Listeria monocytogenes J0161.
For a further assay, the target named is HLA-B*27:05. The assay is described as above. The following applies: source organism: Listeria monocytogenes J0161.
The target in a further assay is HLA-B*40:01. The assay is described as above. The following applies: source organism: Listeria monocytogenes J0161.
Another assay deals with HLA-B*44:02. The description is as above. The following applies: source organism: Listeria monocytogenes J0161.
Another assay addresses HLA-B*53:01. The description is as above. Conditions: source organism: Listeria monocytogenes J0161.
The target of another assay is HLA-B*58:01. Described as above. The following applies: source organism: Listeria monocytogenes J0161.
In a further assay the target is HLA-A*02:11. Briefly: IEDB peptide-MHC binding, purified MHC/direct/fluorescence; filed as Kd, often an IC50 or EC50 that approximates it; ≥ and ≤ were set here for values at or beyond the usual limits of such assays.
Another assay concerns the target HLA-A*02:16. The assay is described as above.
The target of the next assay is HLA-A*02:50. The experiment in a line: IEDB peptide-MHC binding, purified MHC/competitive/fluorescence; filed as Kd, often an IC50 or EC50 that approximates it; ≥ and ≤ were set here for values at or beyond the usual limits of such assays. The following applies: source organism: Vibrio vulnificus YJ016.
The target in assay [2] is HLA-A*24:03. The experiment in a line: IEDB peptide-MHC binding, purified MHC/direct/fluorescence; filed as Kd, often an IC50 or EC50 that approximates it; ≥ and ≤ were set here for values at or beyond the usual limits of such assays. The following applies: source organism: Escherichia coli O157:H7 str. EC869.
In the next assay the target is HLA-B*15:17. The assay is described as above. Conditions: source organism: Escherichia coli O157:H7 str. EC869.
The target in another assay is HLA-B*46:01. Described as above. Conditions: source organism: Escherichia coli O157:H7 str. EC869.
The mark [3] stands for this setting: source organism: Listeria monocytogenes serotype 4b str. H7858.
[4] abbreviates: source organism: Vibrio vulnificus.
The mark [5] stands for this setting: source organism: Vibrio vulnificus CMCP6.
Setting [6] is: source organism: Escherichia coli O157:H7 str. EC869.

For orientation: Kd means the equilibrium constant for the complex coming apart. A low value points to higher affinity.

For AALEGLSGF, the Kd with HLA-A*02:01 (setting [3]) was 1.9 µM; in the assay with HLA-A*02:03 (setting [3]), not below 20 µM; with HLA-A*02:06 (setting [3]) it was 1.92 µM; with HLA-A*02:12 (setting [3]), not below 20 µM; with HLA-A*02:19 (setting [3]), not below 20 µM; in the assay with HLA-A*03:01 (setting [3]) it was not below 20 µM. The Kd was 0.622 µM with HLA-A*23:01; not below 20 µM with HLA-A*26:01 (setting [3]); 0.542 µM with HLA-A*29:02 (setting [3]); not below 20 µM in the assay with HLA-A*69:01 (setting [3]); not below 20 µM in the assay with HLA-B*18:01 (setting [3]); not below 20 µM in the assay with HLA-B*27:03 (setting [3]). The Kd in the assay with HLA-B*39:01 (setting [3]) was not below 20 µM; with HLA-B*51:01 (setting [3]) it was not below 20 µM; in the assay with HLA-B*57:01 (setting [3]), not below 20 µM; with HLA-A*01:01, not below 5 µM; with HLA-A*11:01, not below 5 µM; with HLA-A*24:03 [1], 0.771 µM. Also, the Kd with HLA-A*30:01, with HLA-A*66:01, with HLA-B*07:02, with HLA-B*08:01, in the assay with HLA-B*14:02 and with HLA-B*27:05 was not below 5 µM in each case. The Kd with HLA-B*40:01, with HLA-B*44:02, in the assay with HLA-B*53:01 and in the assay with HLA-B*58:01 was not below 5 µM each time.
Consider QLAFTYCQV, for which the Kd with HLA-A*02:01 (setting [4]) is 0.567 µM; with HLA-A*02:11 (setting [5]) it was 0.002 µM; in the assay with HLA-A*02:16 (setting [5]) it was 0.021 µM; with HLA-A*69:01 (setting [4]) it was 0.153 µM; with HLA-A*02:50 it was not above 0.0001 µM.
Consider SQFNHWFGE, for which the Kd in the assay with HLA-A*02:01 (setting [6]) is not below 20 µM; with HLA-A*02:03 (setting [6]), not below 20 µM; with HLA-A*02:06 (setting [6]), 0.086 µM; with HLA-A*02:11 (setting [6]), not below 20 µM; in the assay with HLA-A*02:12 (setting [6]), not below 20 µM; in the assay with HLA-A*02:16 (setting [6]) it was not below 20 µM. Moreover, the Kd with HLA-A*02:19 (setting [6]), with HLA-A*03:01 (setting [6]), with HLA-A*24:03 [2], in the assay with HLA-A*26:01 (setting [6]), in the assay with HLA-A*29:02 (setting [6]) and with HLA-B*15:17 was not below 20 µM in each case. Also, the Kd with HLA-B*18:01 (setting [6]), with HLA-B*27:03 (setting [6]), in the assay with HLA-B*39:01 (setting [6]), in the assay with HLA-B*46:01, with HLA-B*51:01 (setting [6]) and with HLA-B*57:01 (setting [6]) was not below 20 µM each time.

Values taken from the Immune Epitope Database (IEDB).
